The results in this text go back to patent US5670316, “Diagnostic applications of double D-loop formation” (Daikin Industries, Ltd.).

In this data set the target is RecA (UniProt P0A7G6 P0A7G6:2-353). Put plainly: EMSA; 2.4 mM ATPgammaS, 37 C 10 min; retardation increases over 0.137-13.7 uM RecA. The settings on record: tags: wild-type, untagged; purified from overproducing strain JC12772 or purchased from Pharmacia; label: 32P 5'-end; both complementary strands, heat denatured. How it is done:
RecA protein coating of probes was normally carried out in a standard 1× RecA coating reaction buffer (10× RecA reaction buffer: 100 mM Tris acetate (pH 7.5 at 37° C.), 20 mM magnesium acetate, 500 mM sodium acetate, 10 mM DTT and 50% glycerol (Cheng et al. 1988). All of the probes, whether double-stranded or single-stranded, were denatured before use by heating to 95°–100° C. for five minutes, placed on ice for one minute, and subjected in a Tomy centrifuge to centrifugation (10,000 rpm) at 0° C. for approximately 20 seconds. Denatured probes were added immediately to room temperature RecA coating reaction buffer mixed with ATPγS and diluent (double-distilled H_2O), as necessary.
Heat denatured ^32P-labeled double-stranded 121-mer and 159-mer DNA probes were reacted with RecA protein as described above. The final RecA-DNA reaction mixtures contained 2.4 mM ATPγS. RecA protein or RecA storage buffer was added to each of four reactions containing 0.01 μg of either denatured 121- or 159-mer DNA probe. The final concentration of RecA in each reaction was 0, 0.137, 1.37 or 13.7 μM in lanes 1 and 5, 2 and 6, 3 and 7 or 4 and 8, respectively (FIG. 3). All RecA/DNA probe coating reactions were performed in a final volume of 10 μl. RecA binding was initiated by incubating all the reactions at 37° C. for 10 min. […]

Chain of RecA (P0A7G6 2-353, one chain of several): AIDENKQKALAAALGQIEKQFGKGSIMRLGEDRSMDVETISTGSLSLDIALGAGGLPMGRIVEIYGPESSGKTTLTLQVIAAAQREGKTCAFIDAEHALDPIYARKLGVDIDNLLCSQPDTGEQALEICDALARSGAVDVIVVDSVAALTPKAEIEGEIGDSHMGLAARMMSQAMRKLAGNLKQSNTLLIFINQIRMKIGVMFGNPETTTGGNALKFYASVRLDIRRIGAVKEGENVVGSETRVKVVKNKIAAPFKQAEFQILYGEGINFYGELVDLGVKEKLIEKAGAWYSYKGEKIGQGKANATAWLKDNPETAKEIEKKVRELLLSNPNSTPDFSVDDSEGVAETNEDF

B1: lambda 159-mer probe (7472-7630), heat denatured (ssDNA)
DNA: CTGCATACTGATGCACTTCACGCCACGCGGGATGAACCTGTGGCATTTGTGCTGCCGGGAACGGCGTTTCGTGTCTCTGCCGGTGTGGCAGCCGAAATGACAGAGCGCGGCCTGGCCAGAATGCAATAACGGGAGGCGCTGTGGCTGATTTCGATAACC
Take B1: the binding result is “binds”.
